Data published in patent publication US20260209324A1.

Biological target: LFA-1 on immune cells (THP-1 cells, activated T cells) (human) (UniProt P20701)

Substance: human recombinant EDIL3 (from UniProt O43854) (ligand)
- adhesion of THP-1 cells on TNF-α stimulated TEC monolayers (% inhibition of adhesion): 55
